What all share (conditions): both partners purified
Test [1] has as its target T1, TcsH^2210-2618, His-tagged (Paeniclostridium sordellii, UniProt M9ZTT7 2210-2618).
T1 construct: not shown: His, C-terminal, kept
T1 sequence: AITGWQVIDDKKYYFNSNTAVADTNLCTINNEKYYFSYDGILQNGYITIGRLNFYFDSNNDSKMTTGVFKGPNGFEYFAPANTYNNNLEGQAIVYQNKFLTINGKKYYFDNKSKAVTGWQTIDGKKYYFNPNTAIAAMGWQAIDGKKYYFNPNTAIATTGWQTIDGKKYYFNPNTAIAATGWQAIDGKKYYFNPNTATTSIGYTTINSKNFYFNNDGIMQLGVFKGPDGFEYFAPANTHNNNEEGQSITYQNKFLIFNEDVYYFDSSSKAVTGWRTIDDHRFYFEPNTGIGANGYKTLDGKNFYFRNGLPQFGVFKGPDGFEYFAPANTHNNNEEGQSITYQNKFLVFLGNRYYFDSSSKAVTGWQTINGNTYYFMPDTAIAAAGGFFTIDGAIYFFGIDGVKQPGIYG
As to the kind of experiment: pull-down.

Test [2] addresses T1, TcsH^2210-2618, His-tagged. As to the kind of experiment: BLI.
Test [3] deals with T2, MBP-fused TcsH^2236-2618 (Paeniclostridium sordellii, UniProt M9ZTT7 2236-2618).
T2 construct: source: E. coli BL21(DE3), purified (Amylose resin, SEC)
T2 sequence: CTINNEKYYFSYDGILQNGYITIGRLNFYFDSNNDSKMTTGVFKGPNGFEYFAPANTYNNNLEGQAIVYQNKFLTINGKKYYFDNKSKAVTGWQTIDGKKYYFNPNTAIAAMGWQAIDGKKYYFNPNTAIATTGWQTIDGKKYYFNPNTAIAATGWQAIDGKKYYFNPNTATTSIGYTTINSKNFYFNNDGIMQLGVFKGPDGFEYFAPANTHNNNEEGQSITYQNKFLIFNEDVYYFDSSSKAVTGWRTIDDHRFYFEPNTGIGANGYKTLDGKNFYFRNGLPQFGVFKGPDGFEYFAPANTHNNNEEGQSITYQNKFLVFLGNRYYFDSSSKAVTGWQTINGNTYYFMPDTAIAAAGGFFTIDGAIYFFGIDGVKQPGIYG
Nature of the test: BLI. A general note: In BLI a coated tip is dipped into the sample, and binding shifts an interference pattern.

B1: Fc-His-TMPRSS2^ECD [change] (Fc fusion)
chain: WKFMGSKCSNSGIECDSSGTCINPSNWCDGVSHCPGGEDENRCVRLYGPNFILQVYSSQRKSWHPVCQDDWNENYGRAACRDMGYKNNFYSSQGIVDDSGSTSFMKLNTSAGNVDIYKKLYHSDACSSKAVVSLRCIACGVNLNSSRQSQIVGGESALPGAWPWQVSLHVQNVHVCGGSIITPEWIVTAAHCVEKPLNNPWHWTAFAGILRQSFMFYGAGYQVEKVISHPNYDSKTKNNDIALMKLQKPLTFNDLVKPVCLPNPGMMLQPEQLCWISGWGATEEKGKTSEVLNAAKVLLIETQRCNSRYVYANLITPAMICAGFLQGNVDSCQGDSGGPLVTSKNNIWWLIGDTSWGSGCAKAYRPGVYGNVMVFTDWIYRQMRADG
notes: source: Expi293F, transfected, purified from the supernatant (TALON resin, SEC)
With B1, the binding result in test [1] is on record as “binds”.

B2: Fc-His-TMPRSS2^ECD [change] (Fc fusion)
chain: WKFMGSKCSNSGIECDSSGTCINPSNWCDGVSHCPGGEDENRCVRLYGPNFILQVYSSQRKSWHPVCQDDWNENYGRAACRDMGYKNNFYSSQGIVDDSGSTSFMKLNTSAGNVDIYKKLYHSDACSSKAVVSLRCIACGVNLNSSRQSQIVGGESALPGAWPWQVSLHVQNVHVCGGSIITPEWIVTAAHCVEKPLNNPWHWTAFAGILRQSFMFYGAGYQVEKVISHPNYDSKTKNNDIALMKLQKPLTFNDLVKPVCLPNPGMMLQPEQLCWISGWGATEEKGKTSEVLNAAKVLLIETQRCNSRYVYDNRITPAMICAGFLQGNVDSCQGDSGGPLVTSKNNIWWLIGDTSWGSGCAKAYRPGVYGNVMVFTDWIYRQMRADG
notes: as for B1
As for B2, the binding result in test [1] is on record as “binds”.

B3: Fc-His-TMPRSS2^ECD (Fc fusion)
chain: WKFMGSKCSNSGIECDSSGTCINPSNWCDGVSHCPGGEDENRCVRLYGPNFILQVYSSQRKSWHPVCQDDWNENYGRAACRDMGYKNNFYSSQGIVDDSGSTSFMKLNTSAGNVDIYKKLYHSDACSSKAVVSLRCIACGVNLNSSRQSQIVGGESALPGAWPWQVSLHVQNVHVCGGSIITPEWIVTAAHCVEKPLNNPWHWTAFAGILRQSFMFYGAGYQVEKVISHPNYDSKTKNNDIALMKLQKPLTFNDLVKPVCLPNPGMMLQPEQLCWISGWGATEEKGKTSEVLNAAKVLLIETQRCNSRYVYDNLITPAMICAGFLQGNVDSCQGDSGGPLVTSKNNIWWLIGDTSWGSGCAKAYRPGVYGNVMVFTDWIYRQMRADG
As a reminder, the Kd is the equilibrium constant for the complex coming apart. Higher therefore signals a looser complex. In the case of B3, the dissociation constant (Kd) in test [2] came out at 0.37 nM; in test [3], 0.75 nM.

B4: Fc-His-TMPRSS2^ECD [change] (Fc fusion)
chain: WKFMGSKCSNSGIECDSSGTCINPSNWCDGVSHCPGGEDENRCVRLYGPNFILQVYSSQRKSWHPVCQDDWNENYGRAACRDMGYKNNFYSSQGIVDDSGSTSFMKLNTSAGNVDIYKKLYHSDACSSKAVVSLRCIACGVNLNSSRQSQIVGGESALPGAWPWQVSLHVQNVHVCGGSIITPEWIVTAAHCVEKPLNNPWAWTAFAGILRQSFMFYGAGYQVEKVISHPNYDSKTKNNDIALMKLQKPLTFNDLVKPVCLPNPGMMLQPEQLCWISGWGATEEKGKTSEVLNAAKVLLIETQRCNSRYVYDNLITPAMICAGFLQGNVDSCQGDSGGPLVTSKNNIWWLIGDTSWGSGCAKAYRPGVYGNVMVFTDWIYRQMRADG
notes: as for B1
B4: the binding result in test [1] is given as “binds”.

B5: Fc-His-TMPRSS2^ECD [change] (Fc fusion)
chain: WKFMGSKCSNSGIECDSSGTCINPSNWCDGVSHCPGGEDENRCVRLYGPNFILQVYSSQRKSWHPVCQDDWNENYGRAACRDMGYKNNFYSSQGIVDDSGSTSFMKLNTSAGNVDIYKKLYHSDACSSKAVVSLRCIACGVNLNSSRQSQIVGGESALPGAWPWQVSLHVQNVHVCGGSIITPEWIVTAAHCVEKPRNNPWHWTAFAGILRQSFMFYGAGYQVEKVISHPNYDSKTKNNDIALMKLQKPLTFNDLVKPVCLPNPGMMLQPEQLCWISGWGATEEKGKTSEVLNAAKVLLIETQRCNSRYVYDNLITPAMICAGFLQGNVDSCQGDSGGPLVTSKNNIWWLIGDTSWGSGCAKAYRPGVYGNVMVFTDWIYRQMRADG
notes: as for B1
In the case of B5, the binding result in test [1] is listed as “binds”.

B6: Fc-His-TMPRSS2^ECD [change] (Fc fusion)
chain: WKFMGSKCSNSGIECDSSGTCINPSNWCDGVSHCPGGEDENRCVRLYGPNFILQVYSSQRKSWHPVCQDDWNENYGRAACRDMGYKNNFYSSQGIVDDSGSTSFMKLNTSAGNVDIYKKLYHSDACSSKAVVSLRCIACGVNLNSSRQSQIVGGESALPGAWPWQVSLHVANVHVCGGSIITPEWIVTAAHCVEKPLNNPWHWTAFAGILRQSFMFYGAGYQVEKVISHPNYDSKTKNNDIALMKLQKPLTFNDLVKPVCLPNPGMMLQPEQLCWISGWGATEEKGKTSEVLNAAKVLLIETQRCNSRYVYDNLITPAMICAGFLQGNVDSCQGDSGGPLVTSKNNIWWLIGDTSWGSGCAKAYRPGVYGNVMVFTDWIYRQMRADG
notes: as for B1
Take B6: the binding result in test [1] is given as “binds”.

B7: Fc-His-TMPRSS2^ECD [change] (Fc fusion)
chain: WKFMGSKCSNSGIECDSSGTCINPSNWCDGVSHCPGGEDENRCVRLYGPNFILQVYSSQRKSWHPVCQDDWNENYGRAACRDMGYKNNFYSSQGIVDDSGSTSFMKLNTSAGNVDIYKKLYHSDACSSKAVVSLRCIACGVNLNSSRQSQIVGGESALPGAWPWQVSLHRQNVHVCGGSIITPEWIVTAAHCVEKPLNNPWHWTAFAGILRQSFMFYGAGYQVEKVISHPNYDSKTKNNDIALMKLQKPLTFNDLVKPVCLPNPGMMLQPEQLCWISGWGATEEKGKTSEVLNAAKVLLIETQRCNSRYVYDNLITPAMICAGFLQGNVDSCQGDSGGPLVTSKNNIWWLIGDTSWGSGCAKAYRPGVYGNVMVFTDWIYRQMRADG
notes: as for B1
In the case of B7, the binding result in test [1] was “binds”.
